“And” between values parts separate entries of the source, which are not always exact repeats. Equal values may be shown once.
Tests used:
[1] = target: HIV-1 envelope of gp160 clone B-Acute-009-c08 (HIV-1); assay: capture ELISA, plate 2, mAb 0.3 ug/ml
[2] = target: HIV-1 envelope clone F1-002.c16 (multiclade gp160 clone panel) (HIV-1); assay: capture ELISA, plate 2, mAb 0.3 ug/ml
[3] = target: HIV-1 envelope of gp160 clone B-Chronic-014.c02 (HIV-1); assay: capture ELISA, plate 2, mAb 0.3 ug/ml
[4] = target: HIV-1 16055 envelope (HIV-1); assay: capture ELISA, plate 2, mAb 0.3 ug/ml
[5] = target: HIV-1 envelope of gp160 clone B-Acute-010.c09 (HIV-1); assay: capture ELISA, plate 2, mAb 0.3 ug/ml
[6] = target: HIV-1 envelope of gp160 clone B-Acute-010.c08 (HIV-1); assay: capture ELISA, plate 2, mAb 0.3 ug/ml
[7] = target: HIV-1 JRFL envelope (HIV-1); assay: capture ELISA, plate 2, mAb 0.3 ug/ml
[8] = target: HIV-1 envelope of gp160 clone AG-010.c14 (HIV-1); assay: capture ELISA, plate 2, mAb 0.3 ug/ml
[9] = target: HIV-1 envelope clone BF-002.c05 (multiclade gp160 clone panel) (HIV-1); assay: capture ELISA, plate 2, mAb 0.3 ug/ml
[10] = target: HIV-1 envelope of gp160 clone B-Acute-008.c11 (HIV-1); assay: capture ELISA, plate 2, mAb 0.3 ug/ml
[11] = target: HIV-1 envelope clone F1-002.c11 (multiclade gp160 clone panel) (HIV-1); assay: capture ELISA, plate 2, mAb 0.3 ug/ml
[12] = target: HIV-1 envelope of gp160 clone AG-010.c11 (HIV-1); assay: capture ELISA, plate 2, mAb 0.3 ug/ml
[13] = target: HIV-1 envelope clone G-011.c05 (multiclade gp160 clone panel) (HIV-1); assay: capture ELISA, plate 2, mAb 0.3 ug/ml
[14] = target: HIV-1 envelope clone BF-002.c08 (multiclade gp160 clone panel) (HIV-1); assay: capture ELISA, plate 2, mAb 0.3 ug/ml
[15] = target: HIV-1 envelope of gp160 clone B-Acute-009-c08 (HIV-1); assay: capture ELISA, plate 1, mAb 0.3 ug/ml
[16] = target: HIV-1 envelope clone F1-002.c16 (multiclade gp160 clone panel) (HIV-1); assay: capture ELISA, plate 1, mAb 0.3 ug/ml
[17] = target: HIV-1 envelope of gp160 clone B-Chronic-014.c02 (HIV-1); assay: capture ELISA, plate 1, mAb 0.3 ug/ml
[18] = target: HIV-1 16055 envelope (HIV-1); assay: capture ELISA, plate 1, mAb 0.3 ug/ml
[19] = target: HIV-1 envelope of gp160 clone B-Acute-010.c09 (HIV-1); assay: capture ELISA, plate 1, mAb 0.3 ug/ml
[20] = target: HIV-1 envelope of gp160 clone B-Acute-010.c08 (HIV-1); assay: capture ELISA, plate 1, mAb 0.3 ug/ml
[21] = target: HIV-1 JRFL envelope (HIV-1); assay: capture ELISA, plate 1, mAb 0.3 ug/ml
[22] = target: HIV-1 envelope of gp160 clone AG-010.c14 (HIV-1); assay: capture ELISA, plate 1, mAb 0.3 ug/ml
[23] = target: HIV-1 envelope clone BF-002.c05 (multiclade gp160 clone panel) (HIV-1); assay: capture ELISA, plate 1, mAb 0.3 ug/ml
[24] = target: HIV-1 envelope of gp160 clone B-Acute-008.c11 (HIV-1); assay: capture ELISA, plate 1, mAb 0.3 ug/ml
[25] = target: HIV-1 envelope clone F1-002.c11 (multiclade gp160 clone panel) (HIV-1); assay: capture ELISA, plate 1, mAb 0.3 ug/ml
[26] = target: HIV-1 envelope clone G-011.c02 (multiclade gp160 clone panel) (HIV-1); assay: capture ELISA, plate 1, mAb 0.3 ug/ml
[27] = target: HIV-1 envelope of gp160 clone AG-010.c11 (HIV-1); assay: capture ELISA, plate 1, mAb 0.3 ug/ml
[28] = target: HIV-1 envelope clone G-011.c05 (multiclade gp160 clone panel) (HIV-1); assay: capture ELISA, plate 1, mAb 0.3 ug/ml
[29] = target: HIV-1 envelope clone BF-002.c08 (multiclade gp160 clone panel) (HIV-1); assay: capture ELISA, plate 1, mAb 0.3 ug/ml
[30] = target: HIV-1 16055 envelope (HIV-1); assay: capture ELISA, plate 2, mAb 7.5 ug/ml
[31] = target: HIV-1 envelope of gp160 clone B-Acute-010.c08 (HIV-1); assay: capture ELISA, plate 2, mAb 7.5 ug/ml
[32] = target: HIV-1 JRFL envelope (HIV-1); assay: capture ELISA, plate 2, mAb 7.5 ug/ml
[33] = target: HIV-1 envelope clone BF-002.c05 (multiclade gp160 clone panel) (HIV-1); assay: capture ELISA, plate 2, mAb 7.5 ug/ml
[34] = target: HIV-1 envelope of gp160 clone B-Acute-008.c11 (HIV-1); assay: capture ELISA, plate 2, mAb 7.5 ug/ml
[35] = target: HIV-1 envelope clone F1-002.c11 (multiclade gp160 clone panel) (HIV-1); assay: capture ELISA, plate 2, mAb 7.5 ug/ml
[36] = target: HIV-1 envelope clone G-011.c05 (multiclade gp160 clone panel) (HIV-1); assay: capture ELISA, plate 2, mAb 7.5 ug/ml
[37] = target: HIV-1 JRCSF envelope (HIV-1) (UniProt P20871); assay: capture ELISA, plate 1, mAb 0.3 ug/ml

Substance	ELISA OD [1]	ELISA OD [2]	ELISA OD [3]	ELISA OD [5]	ELISA OD [6]	ELISA OD [8]	ELISA OD [10]	ELISA OD [12]	ELISA OD [13]	ELISA OD [15]	ELISA OD [19]	ELISA OD [20]	ELISA OD [22]	ELISA OD [24]	ELISA OD [26]	ELISA OD [27]	ELISA OD [28]	ELISA OD [31]	ELISA OD [34]	ELISA OD [36]	further results
PGT151 (antibody)	0.063 OD	0.107 OD	0.216 OD	0.072 OD	0.149 OD	0.121 OD	0.234 OD	0.075 OD	0.057 OD	0.085 OD	0.052 OD	0.104 OD	0.118 OD	0.138 OD	0.053 OD	0.055 OD	0.064 OD	0.21 OD	0.209 OD	0.125 OD	ELISA OD [4]: 0.054 OD and 0.096 OD; ELISA OD [7]: 0.073 OD and 0.088 OD; ELISA OD [9]: 0.1 OD; ELISA OD [11]: 0.058 OD; ELISA OD [14]: 0.09 OD; ELISA OD [16]: 0.062 OD; ELISA OD [17]: 0.195 OD; ELISA OD [18]: 0.053 OD and 0.058 OD; ELISA OD [21]: 0.074 OD and 0.055 OD; ELISA OD [23]: 0.08 OD; ELISA OD [25]: 0.054 OD; ELISA OD [29]: 0.055 OD; ELISA OD [30]: 0.119 OD and 0.118 OD; ELISA OD [32]: 0.138 OD and 0.149 OD; ELISA OD [33]: 0.253 OD; ELISA OD [35]: 0.135 OD
PG9 (antibody)	0.057 OD	–	0.479 OD	0.074 OD	0.079 OD	0.274 OD	0.097 OD	0.257 OD	0.076 OD	0.062 OD	0.073 OD	0.089 OD	0.339 OD	0.114 OD	0.064 OD	0.278 OD	0.104 OD	0.33 OD	0.204 OD	0.235 OD	ELISA OD [4]: 0.118 OD and 0.146 OD; ELISA OD [7]: 0.06 OD and 0.056 OD; ELISA OD [37]: 0.158 OD and 0.171 OD; ELISA OD [17]: 0.564 OD; ELISA OD [18]: 0.184 OD and 0.188 OD; ELISA OD [21]: 0.066 OD and 0.072 OD; ELISA OD [30]: 0.263 OD and 0.251 OD; ELISA OD [32]: 0.07 OD and 0.054 OD
PGV04 (antibody)	0.075 OD	0.142 OD	1.52 OD	0.424 OD	0.303 OD	0.096 OD	0.129 OD	0.103 OD	0.123 OD	0.07 OD	0.432 OD	0.287 OD	0.093 OD	0.055 OD	0.167 OD	0.07 OD	0.08 OD	3.25 OD	0.109 OD	0.719 OD	ELISA OD [9]: 1 OD; ELISA OD [11]: 0.064 OD; ELISA OD [14]: 0.758 OD; ELISA OD [37]: 0.481 OD and 0.603 OD; ELISA OD [16]: 0.083 OD; ELISA OD [23]: 0.881 OD; ELISA OD [25]: 0.082 OD; ELISA OD [29]: 0.663 OD; ELISA OD [33]: 4 OD; ELISA OD [35]: 0.506 OD
PG16 (antibody)	0.077 OD	0.224 OD	0.222 OD	0.071 OD	0.11 OD	0.337 OD	0.141 OD	0.167 OD	0.095 OD	0.053 OD	0.062 OD	0.083 OD	0.265 OD	0.163 OD	0.063 OD	0.141 OD	0.085 OD	0.301 OD	0.215 OD	0.153 OD	ELISA OD [9]: 0.361 OD; ELISA OD [11]: 0.098 OD; ELISA OD [14]: 0.097 OD; ELISA OD [37]: 0.122 OD and 0.186 OD; ELISA OD [16]: 0.229 OD; ELISA OD [17]: 0.288 OD; ELISA OD [23]: 0.352 OD; ELISA OD [25]: 0.088 OD; ELISA OD [29]: 0.109 OD; ELISA OD [33]: 0.764 OD; ELISA OD [35]: 0.154 OD
PGT145 (antibody)	0.084 OD	0.254 OD	0.058 OD	0.082 OD	0.088 OD	0.061 OD	0.092 OD	0.075 OD	0.074 OD	0.058 OD	0.065 OD	0.081 OD	0.055 OD	0.099 OD	0.084 OD	0.06 OD	0.076 OD	0.276 OD	0.148 OD	0.138 OD	ELISA OD [4]: 0.066 OD and 0.1 OD; ELISA OD [7]: 0.068 OD and 0.08 OD; ELISA OD [9]: 0.114 OD; ELISA OD [11]: 0.059 OD; ELISA OD [14]: 0.088 OD; ELISA OD [37]: 0.083 OD and 0.072 OD; ELISA OD [16]: 0.164 OD; ELISA OD [17]: 0.056 OD; ELISA OD [18]: 0.057 OD and 0.069 OD; ELISA OD [21]: 0.063 OD and 0.071 OD; ELISA OD [23]: 0.106 OD; ELISA OD [25]: 0.061 OD; ELISA OD [29]: 0.065 OD; ELISA OD [30]: 0.117 OD and 0.09 OD; ELISA OD [32]: 0.093 OD and 0.082 OD; ELISA OD [33]: 0.649 OD; ELISA OD [35]: 0.099 OD

Reference: patent US20150065381A1
